Data on two molecules can be found in paper PMC4476238 (Journal of immunology (Baltimore, Md. : 1950), 2015).

The target in this test is T1, Pep 4 (synthetic Phl p 1-derived peptide) (Phleum pratense (timothy grass)).
T1 chain: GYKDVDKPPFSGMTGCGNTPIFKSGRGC
The test can be described thus: ELISA. On the technique in general: ELISA stands for enzyme-linked immunosorbent assay.

B1: ScFv 25VH/25VL (ScFv engineered from the V regions of the Phl p 1-specific IgE Fab clone 25) (scFv, V domains shown)
VH: LESGGGLVQPGGSLRLSCAASGFTFDDHAMHWVRQTPEKGLQWVSGISWNSGVVAYADSVKGRFSISRDNAKNSLYLQMNNLIPEDTAVYYCVRDFRAASPYFFDYWGQGTRVTVSS
VL: ELTQSPSSLSASVGDRVTITCRASQSIGNYLNWYQQKPGKAPNLLIYAASSLQSGVPSRFSGSGSGTDFTLTISSLQREDFATYYCQQSNRTPITFGQGTRLEIK
For the molecule B1, the binding result is on record as “no binding”.

B2: P1 IgG1 (complete human monoclonal IgG1 Ab with the V regions of IgE Fab clone 25) (antibody, V domains shown)
VH: LESGGGLVQPGGSLRLSCAASGFTFDDHAMHWVRQTPEKGLQWVSGISWNSGVVAYADSVKGRFSISRDNAKNSLYLQMNNLIPEDTAVYYCVRDFRAASPYFFDYWGQGTRVTVSS
VL: ELTQSPSSLSASVGDRVTITCRASQSIGNYLNWYQQKPGKAPNLLIYAASSLQSGVPSRFSGSGSGTDFTLTISSLQREDFATYYCQQSNRTPITFGQGTRLEIK
For B2, the binding result was “no binding”.
